# Source: patent US20190382474A1 (SURFACE ONCOLOGY, published 2019)
# Changes are numbered by the printed parent chain. Several values for one entry are separate records, joined by “and”; a condition that tells them apart may be missing. Identical values can stand only once.
# T1: recombinant human IL-27 (human, UniProt Q14213 21-229; Q8NEV9 29-243)
# T1 construct: Bought from R&D Systems (Cat. 2526-IL); also called hIL-27; rhIL-27
# T1 sequence 1: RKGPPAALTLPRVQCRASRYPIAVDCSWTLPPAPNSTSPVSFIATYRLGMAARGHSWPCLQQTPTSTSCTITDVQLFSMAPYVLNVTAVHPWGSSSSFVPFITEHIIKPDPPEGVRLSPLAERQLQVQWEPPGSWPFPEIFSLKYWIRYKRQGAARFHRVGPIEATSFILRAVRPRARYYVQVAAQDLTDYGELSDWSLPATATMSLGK
# T1 sequence 2: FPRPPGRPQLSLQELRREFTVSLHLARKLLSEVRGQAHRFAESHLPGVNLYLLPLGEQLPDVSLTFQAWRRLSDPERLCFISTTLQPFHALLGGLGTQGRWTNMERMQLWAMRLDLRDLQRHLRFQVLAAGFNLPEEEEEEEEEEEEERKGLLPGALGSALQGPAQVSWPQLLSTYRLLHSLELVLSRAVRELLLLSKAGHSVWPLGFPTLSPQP
# B1: SRF573 (antibody, V domains shown)
# VH: QVQLVQSGAEVKKPGSSVKVSCKASGGTFSSYAISWVRQAPGQGLEWMGGIIPIFGTANYAQKFQGRVTITADESTSTAYMELSSLRSEDTAVYYCARSYYSSRWHYYYYMDVWGKGTTVTVSS
# VL: DIQMTQSPSSVSASVGDRVTITCRASQGISSWLAWYQQKPGKAPKLLIYAASNLQSGVPSRFSGSGSGTDFTLTISSLQPEDFATYYCQQADDLPLTFGGGTKVEIKR
# B2: SRF583 (antibody, V domains shown)
# VH: QLQLQESGPGLVKPSETLSLTCTVSGGSISSSSYYWGWIRQPPGKGLEWIGSISYSGSTYYNPSLKSRVTISVDTSKNQFSLKLSSVTAADTAVYYCAREEYSFSYLDYWGQGTTVTVSS
# VL: B1 VL with D92L, D93L, L94F, L96P
# B3: SRF414 (antibody, V domains shown)
# VH: QVQLQQWGAGLLKPSETLSLTCAVYGGSFSRYYWSWIRQPPGKGLEWIGSIDYSGSTEYNPSLKSRVTISVDTSKNQFSLKLSSVTAADTAVYYCARDGVYYDSSDLGFDIWGQGTMVTVSS
# VL: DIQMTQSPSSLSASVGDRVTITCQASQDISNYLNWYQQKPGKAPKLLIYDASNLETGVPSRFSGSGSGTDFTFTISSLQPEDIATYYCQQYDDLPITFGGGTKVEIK
# notes: also called SRF414-A; SRF414-B
# B4: SRF541 (antibody, V domains shown)
# VH: QVQLQESGPGLVKPSETLSLTCTVSGGSISSYYWSWIRQPPGKGLEWIGSIYYSGSTNYNPSLKSRVTISVDTSKNQFSLKLSSVTAADTAVYYCAREVDRDDVAFDIWGQGTMVTVSS
# VL: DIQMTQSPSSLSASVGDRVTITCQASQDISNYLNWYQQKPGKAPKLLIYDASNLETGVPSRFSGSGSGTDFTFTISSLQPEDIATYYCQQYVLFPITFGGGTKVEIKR
# B5: Ab7.2 (antibody, human IgG1, kappa, V domains shown)
# VH: EVKLVESGGGLVQPGGSLKLFCAASGFTFTSYSMSWVRQTPEKRLEWVAYISYDGGSAYYPDTVKGRFSISRDNAKKTLYLQMSSLKSEDTAMYYCARHGDYDDDDAMDYWGQGTSVTVSS
# VL: DIQMTQSPSSLSASVGDRVTITCRASENIYSYLAWYQQKQGKAPKLLVYNAETLTEGVPSRFSGSGSGTDFTLTISSLQPEDFANYYCQHHYGTPLTFGQGTKLDIKR
# notes: human IgG1/kappa
# B6: Ab7.3 (antibody, human IgG1, kappa, V domains shown)
# VH: B5 VH with K19R, F21S, T40A, E42G, R44G, S69T, A75S
# VL: DIQMTQSPASLSASVGETVTITCRASENIYSYLAWYQQKQGKSPQLLVYNAETLTEGVPSRFSGSGSGTQFSLKINSLQPEDFGNYYCQHHYGTPLTFGAGTKLDLKR
# notes: human IgG1/kappa
# B7: Ab7.17 (antibody, human IgG1, kappa, V domains shown)
# VH: EVQLVESGGGLVQPGGSLRLSCAASGFTFTSYSMSWVRQAPGKGLEWVAYISYDGGSAYYPDTVKGRFTISRDNSKNTLYLQMNSLRAEDTAVYYCARHGDYDDDDAMDYWGQGTLVTVSS
# VL: B5 VL with Q40P, D105E
# notes: human IgG1/kappa
# B8: Ab7.5 (antibody, human IgG1, kappa, V domains shown)
# VH: B5 VH with K19R, F21S, T40A, E42G, R44G, S69T, A75S
# VL: B5 VL with Q40P, D105E
# notes: human IgG1/kappa
# B9: Ab7.8 (antibody, human IgG1, kappa, V domains shown)
# VH: B7 VH with N84S, R87K, A88S, V93M
# VL: B5 VL
# notes: human IgG1/kappa
# B10: Ab7.9 (antibody, human IgG1, kappa, V domains shown)
# VH: B7 VH with N84S, R87K, A88S, V93M
# VL: B5 VL with Q40P, D105E
# notes: human IgG1/kappa
# B11: Ab7.13 (antibody, human IgG1, kappa, V domains shown)
# VH: B7 VH with Q3K, N77K
# VL: B5 VL with Q40P, D105E
# notes: human IgG1/kappa
# B12: Ab7.12 (antibody, human IgG1, kappa, V domains shown)
# VH: B7 VH with Q3K, N77K
# VL: B5 VL
# notes: human IgG1/kappa
# B13: Ab7.4 (antibody, human IgG1, kappa, V domains shown)
# VH: B5 VH with K19R, F21S, T40A, E42G, R44G, S69T, A75S
# VL: B5 VL
# notes: human IgG1/kappa
# B14: Ab7.10 (antibody, human IgG1, kappa, V domains shown)
# VH: B7 VH with N84S, R87K, A88S, V93M
# VL: B5 VL with Q40P, N85T, D105E
# notes: human IgG1/kappa
# B15: Ab7.1 (antibody, human IgG1, kappa)
# heavy: not shown
# light: DIQMTQSPASLSASVGETVTITCRASENIYSYLAWYQQKQGKSPQLLVYNAETLTEGVPSRFSGSGSGTQFSLKINSLQPEDFGNYYCQHHYGTPLTFGAGTKLDLKRTVAAPSVFIFPPSDEQLKSGTASVVCLLNNFYPREAKVQWKVDNALQSGNSQESVTEQDSKDSTYSLSSTLTLSKADYEKHKVYACEVTHQGLSSPVTKSFNRGEC
# notes: human IgG1/kappa chimera from HEK293 EBNA cells; also called chimeric Ab7.1 antibody; chimeric antibody
# Assays:
# recombinant human IL-27 [1] = target: T1, recombinant human IL-27; test: column 'Affinity hIL-27 (M)', property (i); method not given, paragraph 885 names SPR (BIACORE 2000)
# recombinant human IL-27 [2] = target: T1, recombinant human IL-27; test: SPR (Biacore T200), hIL-27 on CM5 chip, single cycle, 1:1 model
# Description: (§1) The antibodies were further characterized by surface plasmon resonance (SPR). Kinetic experiments were performed on a Biacore T200 (GE Healthcare, Uppsala, Sweden). All experiments were run at 25° C. with HBS-P+ running buffer (pH 7.4) (GE Healthcare, Little Chalfont, UK) using hIL-27 (R&D Systems, Abingdon, UK). Human IL-27 (hIL-27) antigen was captured on a CM5 chip to ˜16 RU. Immobilization was carried out at a protein concentration of 1 μg/mL in 10 mM acetate buffer pH 5.0. A three point, three-fold dilution range from 3.3 nM to 30 nM of antibody diluted in HBS-P+ buffer without regeneration between each concentration was used. The association phase for the three injections of increasing concentrations of antibody was monitored for 75 seconds each time and a single dissociation phase was measured for 250 seconds following the last injection of antibody. Regeneration of the hIL-27 surface was conducted using a single injection of 2M MgCl₂ for 120 s. Multiple repeats (n=4) of the chimeric antibody were performed throughout the assay to check the stability of the surface and analyte over the kinetic cycles.
# (§2) Both 1:1 binding and bivalent analyte models were used to analyze the data due to the bivalent nature of the antibody. The results from the 1:1 binding model analysis are summarized in Table 4 and results from the bivalent analyte model are summarized in Table 5.
# recombinant human IL-27 [3] = target: T1, recombinant human IL-27; test: SPR, hIL-27 on CM5 chip, bivalent analyte model
# Description: as §1, §2
# recombinant human IL-27 [4] = target: T1, recombinant human IL-27; test: SPR, hIL-27 on CM5 chip, bivalent analyte model (kd1)
# Description: as §1, §2
# recombinant human IL-27 [5] = target: T1, recombinant human IL-27; test: SPR, hIL-27 on CM5 chip, bivalent analyte model (ka1)
# Description: as §1, §2
Binder,Kd (recombinant human IL-27 [1]) [nM],Kd (recombinant human IL-27 [2]),Relative KD to Ab7.1 (recombinant human IL-27 [2]),koff (recombinant human IL-27 [2]) [s⁻¹],kon (recombinant human IL-27 [2]) [M⁻¹ s⁻¹],ka2 (recombinant human IL-27 [3]),kd2 (recombinant human IL-27 [3]) [s⁻¹],koff (recombinant human IL-27 [4]),kon (recombinant human IL-27 [5])
B1,0.74,,,,,,,,
B2,1.98,,,,,,,,
B3,0.52,,,,,,,,
B4,94.4,,,,,,,,
B5,,1.2 nM,1.2,0.0018,1.5e+06,0.035 1/RUs,0.087,0.0027 s⁻¹,700000 M⁻¹ s⁻¹
B6,,0.96 nM,0.9,0.0015,1.5e+06,0.029 1/RUs,0.063,0.0022 s⁻¹,750000 M⁻¹ s⁻¹
B7,,1.5 nM,1.5,0.0019,1.3e+06,0.039 1/RUs,0.09,0.0029 s⁻¹,580000 M⁻¹ s⁻¹
B8,,1.2 nM,1.2,0.0018,1.5e+06,0.028 1/RUs,0.068,0.0027 s⁻¹,680000 M⁻¹ s⁻¹
B9,,1.5 nM,1.4,0.0018,1.3e+06,0.064 1/RUs,0.15,0.0027 s⁻¹,580000 M⁻¹ s⁻¹
B10,,1.5 nM,1.5,0.0019,1.3e+06,0.043 1/RUs,0.11,0.0028 s⁻¹,590000 M⁻¹ s⁻¹
B11,,1.2 nM,1.2,0.0018,1.5e+06,0.02 1/RUs,0.053,0.0026 s⁻¹,740000 M⁻¹ s⁻¹
B12,,1.2 nM,1.2,0.0018,1.5e+06,0.11 1/RUs,0.29,0.0026 s⁻¹,750000 M⁻¹ s⁻¹
B13,,1.2 nM and 1.3 nM,1.2,0.0018,1.5e+06,,,0.0026 s⁻¹ and 0.0025 s⁻¹,720000 M⁻¹ s⁻¹ and 710000 M⁻¹ s⁻¹
B14,,1.4 nM,1.4,0.0018,1.3e+06,0.084 1/RUs,0.2,0.0025 s⁻¹,600000 M⁻¹ s⁻¹
B15,,1 nM,1,0.0015,1.4e+06,0.021 1/RUs,0.046,0.0022 s⁻¹,670000 M⁻¹ s⁻¹
